Source: patent publication US20230151068A1

What follows are binders tested against biotinylated His-Avi-TEAD (194-411) (UniProt P28347) (assay: SSM screen, enrichment after two rounds of sorting).

Binder | enrichment score
GSWDEYIERAKECCKKGDIQCCLRYFEESGDPNVMLICLFCP (designed binder) [P01W variant of SEQ ID NO: 1] | -9.1
GSPPEYIERAKECCKKGDIQCCLRYFEESGDPNVMLICLFCP (designed binder) [D02P variant of SEQ ID NO: 1] | -2.11
GSPDEYIYRAKECCKKGDIQCCLRYFEESGDPNVMLICLFCP (designed binder) [E06Y variant of SEQ ID NO: 1] | -2.33
GSPDEYPERAKECCKKGDIQCCLRYFEESGDPNVMLICLFCP (designed binder) [I05P variant of SEQ ID NO: 1] | -0.43
GSPDEYIEPAKECCKKGDIQCCLRYFEESGDPNVMLICLFCP (designed binder) [R07P variant of SEQ ID NO: 1] | -2.49
GSPDWYIERAKECCKKGDIQCCLRYFEESGDPNVMLICLFCP (designed binder) [E03W variant of SEQ ID NO: 1] | -1.4
GSPDEYIWRAKECCKKGDIQCCLRYFEESGDPNVMLICLFCP (designed binder) [E06W variant of SEQ ID NO: 1] | -1.53
GSPDEWIERAKECCKKGDIQCCLRYFEESGDPNVMLICLFCP (designed binder) [Y04W variant of SEQ ID NO: 1] | -2.47
GSPDPYIERAKECCKKGDIQCCLRYFEESGDPNVMLICLFCP (designed binder) [E03P variant of SEQ ID NO: 1] | -0.4
GSPDEYIEYAKECCKKGDIQCCLRYFEESGDPNVMLICLFCP (designed binder) [R07Y variant of SEQ ID NO: 1] | -1.01
GSPDEYIPRAKECCKKGDIQCCLRYFEESGDPNVMLICLFCP (designed binder) [E06P variant of SEQ ID NO: 1] | -2.84
GSPDEYWERAKECCKKGDIQCCLRYFEESGDPNVMLICLFCP (designed binder) [I05W variant of SEQ ID NO: 1] | -7.46
GSPDEYIEWAKECCKKGDIQCCLRYFEESGDPNVMLICLFCP (designed binder) [R07W variant of SEQ ID NO: 1] | -1.28
GSPYEYIERAKECCKKGDIQCCLRYFEESGDPNVMLICLFCP (designed binder) [D02Y variant of SEQ ID NO: 1] | -1.63
GSPDYYIERAKECCKKGDIQCCLRYFEESGDPNVMLICLFCP (designed binder) [E03Y variant of SEQ ID NO: 1] | -0.36
GSYDEYIERAKECCKKGDIQCCLRYFEESGDPNVMLICLFCP (designed binder) [P01Y variant of SEQ ID NO: 1] | -3.33
GSPWEYIERAKECCKKGDIQCCLRYFEESGDPNVMLICLFCP (designed binder) [D02W variant of SEQ ID NO: 1] | -2.95
GSPDEPIERAKECCKKGDIQCCLRYFEESGDPNVMLICLFCP (designed binder) [Y04P variant of SEQ ID NO: 1] | 1.02
GSPDEYYERAKECCKKGDIQCCLRYFEESGDPNVMLICLFCP (designed binder) [I05Y variant of SEQ ID NO: 1] | -10.9

Now from value to binder:

enrichment score | Binder
-4.96 | GSPDEYIERAYECCKKGDIQCCLRYFEESGDPNVMLICLFCP (designed binder) [K09Y variant of SEQ ID NO: 1]
-4.41 | GSPDEYIERAWECCKKGDIQCCLRYFEESGDPNVMLICLFCP (designed binder) [K09W variant of SEQ ID NO: 1]
-5.61 | GSPDEYIERAKYCCKKGDIQCCLRYFEESGDPNVMLICLFCP (designed binder) [E10Y variant of SEQ ID NO: 1]
1.27 | GSPDEYIERAKECCKDGDIQCCLRYFEESGDPNVMLICLFCP (designed binder) [K14D variant of SEQ ID NO: 1]
0.7 | GSPDEYIERAKECCGKGDIQCCLRYFEESGDPNVMLICLFCP (designed binder) [K13G variant of SEQ ID NO: 1]
-3.35 | GSPDEYIERYKECCKKGDIQCCLRYFEESGDPNVMLICLFCP (designed binder) [A08Y variant of SEQ ID NO: 1]
-9.54 | GSPDEYIERAKECCKKGGIQCCLRYFEESGDPNVMLICLFCP (designed binder) [D16G variant of SEQ ID NO: 1]
-9.42 | GSPDEYIERAKECCKKGDDQCCLRYFEESGDPNVMLICLFCP (designed binder) [I17D variant of SEQ ID NO: 1]
0.43 | GSPDEYIERAKECCDKGDIQCCLRYFEESGDPNVMLICLFCP (designed binder) [K13D variant of SEQ ID NO: 1]
-5.4 | GSPDEYIERAKECCKKGDGQCCLRYFEESGDPNVMLICLFCP (designed binder) [I17G variant of SEQ ID NO: 1]
-3.72 | GSPDEYIERAKPCCKKGDIQCCLRYFEESGDPNVMLICLFCP (designed binder) [E10P variant of SEQ ID NO: 1]
-4.5 | GSPDEYIERAPECCKKGDIQCCLRYFEESGDPNVMLICLFCP (designed binder) [K09P variant of SEQ ID NO: 1]
-4.7 | GSPDEYIERPKECCKKGDIQCCLRYFEESGDPNVMLICLFCP (designed binder) [A08P variant of SEQ ID NO: 1]
1.11 | GSPDEYIERAKECCKGGDIQCCLRYFEESGDPNVMLICLFCP (designed binder) [K14G variant of SEQ ID NO: 1]
1 | GSPDEYIERAKECCKEGDIQCCLRYFEESGDPNVMLICLFCP (designed binder) [K14E variant of SEQ ID NO: 1]
-0.26 | GSPDEYIERAKECCKKDDIQCCLRYFEESGDPNVMLICLFCP (designed binder) [G15D variant of SEQ ID NO: 1]
-0.3 | GSPDEYIERAKECCKKGDEQCCLRYFEESGDPNVMLICLFCP (designed binder) [I17E variant of SEQ ID NO: 1]
1.99 | GSPDEYIERAKECCKKEDIQCCLRYFEESGDPNVMLICLFCP (designed binder) [G15E variant of SEQ ID NO: 1]
-0.19 | GSPDEYIERAKECCKKGDIDCCLRYFEESGDPNVMLICLFCP (designed binder) [Q18D variant of SEQ ID NO: 1]
-5.46 | GSPDEYIERWKECCKKGDIQCCLRYFEESGDPNVMLICLFCP (designed binder) [A08W variant of SEQ ID NO: 1]
-2.03 | GSPDEYIERAKECCKKGDIGCCLRYFEESGDPNVMLICLFCP (designed binder) [Q18G variant of SEQ ID NO: 1]
-0.1 | GSPDEYIERAKECCEKGDIQCCLRYFEESGDPNVMLICLFCP (designed binder) [K13E variant of SEQ ID NO: 1]
-1.58 | GSPDEYIERAKWCCKKGDIQCCLRYFEESGDPNVMLICLFCP (designed binder) [E10W variant of SEQ ID NO: 1]
-0.84 | GSPDEYIERAKECCKKGDIECCLRYFEESGDPNVMLICLFCP (designed binder) [Q18E variant of SEQ ID NO: 1]
-3.6 | GSPDEYIERAKECCKKGEIQCCLRYFEESGDPNVMLICLFCP (designed binder) [D16E variant of SEQ ID NO: 1]
